Test results reported in PMC9482650, “Quantitative fragmentomics allow affinity mapping of interactomes” (Nature Communications, 2022).

T1: PDZD11, Q5EBL8
T1 sequence (Q5EBL8 42-139, limits assumed, looked up): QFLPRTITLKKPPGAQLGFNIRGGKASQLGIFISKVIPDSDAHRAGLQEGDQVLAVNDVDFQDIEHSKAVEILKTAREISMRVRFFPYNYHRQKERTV

T2: MAGI2_1, Q86UL8
T2 sequence (Q86UL8 12-111, limits assumed, looked up): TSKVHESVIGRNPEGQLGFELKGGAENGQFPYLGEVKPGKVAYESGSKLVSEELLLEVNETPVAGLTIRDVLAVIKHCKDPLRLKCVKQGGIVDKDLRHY

T3: SHROOM3, Q8TF72
T3 sequence (Q8TF72 20-120, limits assumed, looked up): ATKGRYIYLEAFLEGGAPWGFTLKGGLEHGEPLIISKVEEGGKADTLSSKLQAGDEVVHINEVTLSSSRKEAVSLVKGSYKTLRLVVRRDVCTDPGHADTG

T4: MLLT4, P55196
T4 sequence (P55196 1002-1103, limits assumed, looked up): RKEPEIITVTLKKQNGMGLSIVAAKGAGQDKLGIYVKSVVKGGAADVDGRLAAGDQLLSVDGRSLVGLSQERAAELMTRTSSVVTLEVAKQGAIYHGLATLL

T5: MPDZ_7, O75970
T5 sequence (O75970 1146-1253, limits assumed, looked up): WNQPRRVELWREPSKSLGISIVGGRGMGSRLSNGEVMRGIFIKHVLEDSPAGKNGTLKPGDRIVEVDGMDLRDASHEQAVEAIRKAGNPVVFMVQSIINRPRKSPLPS

T6: PDLIM3, Q53GG5
T6 sequence (Q53GG5 1-94, limits assumed, looked up): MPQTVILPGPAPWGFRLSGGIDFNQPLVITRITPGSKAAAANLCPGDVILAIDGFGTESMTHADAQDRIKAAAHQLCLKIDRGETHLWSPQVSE

T7: MPP1, Q00013
T7 sequence (Q00013 66-162, limits assumed, looked up): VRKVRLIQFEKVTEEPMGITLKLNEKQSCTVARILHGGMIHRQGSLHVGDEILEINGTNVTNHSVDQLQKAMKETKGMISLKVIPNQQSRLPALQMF

T8: GIPC1, O14908
T8 sequence (O14908 128-223, limits assumed, looked up): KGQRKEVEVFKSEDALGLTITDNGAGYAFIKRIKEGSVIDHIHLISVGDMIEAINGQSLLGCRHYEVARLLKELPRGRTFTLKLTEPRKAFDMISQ

T9: NHERF1_1, O14745
T9 sequence (O14745 9-104, limits assumed, looked up): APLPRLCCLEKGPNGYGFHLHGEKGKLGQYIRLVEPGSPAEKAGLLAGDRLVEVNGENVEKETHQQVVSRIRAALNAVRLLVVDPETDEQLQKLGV

T10: GRIP1_1, Q9Y3R0
T10 sequence (Q9Y3R0 48-146, limits assumed, looked up): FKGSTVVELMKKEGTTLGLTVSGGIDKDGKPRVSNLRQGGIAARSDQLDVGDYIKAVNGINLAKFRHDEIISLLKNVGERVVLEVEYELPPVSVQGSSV

T11: MPDZ_2, O75970
T11 sequence (O75970 252-347, limits assumed, looked up): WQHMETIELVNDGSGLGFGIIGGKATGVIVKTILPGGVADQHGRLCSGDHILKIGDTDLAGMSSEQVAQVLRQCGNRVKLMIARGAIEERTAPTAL

T12: CNKSR1, Q969H4
T12 sequence (Q969H4 191-295, limits assumed, looked up): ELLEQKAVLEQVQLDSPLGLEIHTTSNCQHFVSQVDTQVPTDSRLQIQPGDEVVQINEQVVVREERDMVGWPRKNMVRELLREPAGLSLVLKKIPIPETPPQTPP

T13: TJP3_2, O95049
T13 sequence (O95049 190-282, limits assumed, looked up): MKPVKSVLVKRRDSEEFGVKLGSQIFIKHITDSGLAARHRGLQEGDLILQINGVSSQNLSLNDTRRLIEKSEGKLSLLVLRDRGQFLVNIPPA


What was measured:
Test in all cases: holdup assay
Set-up in all cases: key: below the threshold = too weak to quantify, mostly under pKd 3.1 to 4
Conditions in all cases: plain residues with an end cap or a label only (N-terminal biotin on a linker: ttds)
MAGI3_4, Q5TCQ9 = molecular target: MAGI3_4, Q5TCQ9
PARD3B_3, Q8TEW8 = molecular target: PARD3B_3, Q8TEW8
PDZD11, Q5EBL8 = molecular target: T1, PDZD11, Q5EBL8
MAGI2_1, Q86UL8 = molecular target: T2, MAGI2_1, Q86UL8
SHROOM3, Q8TF72 = molecular target: T3, SHROOM3, Q8TF72
MLLT4, P55196 = molecular target: T4, MLLT4, P55196
MPDZ_7, O75970 = molecular target: T5, MPDZ_7, O75970
TJP1_1, Q07157 = molecular target: TJP1_1, Q07157
PDLIM3, Q53GG5 = molecular target: T6, PDLIM3, Q53GG5
MPP1, Q00013 = molecular target: T7, MPP1, Q00013
Q9UMS6 = molecular target: Q9UMS6
GIPC3, Q8TF64 = molecular target: GIPC3, Q8TF64
Q8TEW0 = molecular target: Q8TEW0
GIPC1, O14908 = molecular target: T8, GIPC1, O14908
NHERF1_1, O14745 = molecular target: T9, NHERF1_1, O14745
RGS3, P49796-9 = molecular target: RGS3, P49796-9
GRIP1_1, Q9Y3R0 = molecular target: T10, GRIP1_1, Q9Y3R0
RIMS2, Q9UQ26 = molecular target: RIMS2, Q9UQ26
Q9ULJ8 = molecular target: Q9ULJ8
MPDZ_2, O75970 = molecular target: T11, MPDZ_2, O75970
IL16_2, Q14005 = molecular target: IL16_2, Q14005
CNKSR1, Q969H4 = molecular target: T12, CNKSR1, Q969H4
Q9UDY2 = molecular target: Q9UDY2
PARD3_1, Q8TEW0 = molecular target: PARD3_1, Q8TEW0
TJP3_2, O95049 = molecular target: T13, TJP3_2, O95049

Chain of GIPC3, Q8TF64 (Q8TF64 107-202): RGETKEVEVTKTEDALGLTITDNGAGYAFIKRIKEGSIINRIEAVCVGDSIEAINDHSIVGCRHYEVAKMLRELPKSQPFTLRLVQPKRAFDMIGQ
Chain of PARD3_1, Q8TEW0 (Q8TEW0 264-372): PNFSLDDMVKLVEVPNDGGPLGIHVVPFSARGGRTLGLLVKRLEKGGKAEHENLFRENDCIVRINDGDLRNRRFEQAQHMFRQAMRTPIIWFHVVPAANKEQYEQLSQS
Chain of PARD3B_3, Q8TEW8 (Q8TEW8 490-594): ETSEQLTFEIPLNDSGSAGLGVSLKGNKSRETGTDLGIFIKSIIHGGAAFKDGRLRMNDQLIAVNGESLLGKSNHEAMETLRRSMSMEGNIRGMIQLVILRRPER
Chain of MAGI3_4, Q5TCQ9 (Q5TCQ9 716-815): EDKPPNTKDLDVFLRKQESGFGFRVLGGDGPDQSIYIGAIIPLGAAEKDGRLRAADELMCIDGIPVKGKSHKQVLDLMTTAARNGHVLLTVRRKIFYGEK
Chain of RGS3, P49796-9 (P49796 other isoform, or with tags, fused parts or gaps): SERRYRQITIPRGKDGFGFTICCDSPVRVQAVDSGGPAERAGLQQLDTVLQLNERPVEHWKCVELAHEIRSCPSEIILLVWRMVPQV
Chain of TJP1_1, Q07157 (Q07157 18-120): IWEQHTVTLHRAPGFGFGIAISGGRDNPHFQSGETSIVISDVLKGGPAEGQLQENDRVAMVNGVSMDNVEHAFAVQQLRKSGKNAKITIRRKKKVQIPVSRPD
Chain of IL16_2, Q14005 (Q14005 350-450): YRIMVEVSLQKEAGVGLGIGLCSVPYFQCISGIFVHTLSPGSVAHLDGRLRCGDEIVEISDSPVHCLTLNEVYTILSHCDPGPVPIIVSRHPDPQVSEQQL
Chain of RIMS2, Q9UQ26 (Q9UQ26 637-758): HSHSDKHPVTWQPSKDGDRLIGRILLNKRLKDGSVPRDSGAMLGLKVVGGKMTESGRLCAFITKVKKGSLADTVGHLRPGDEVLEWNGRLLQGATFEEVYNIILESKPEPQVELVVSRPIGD

Binder | pKd (MAGI3_4, Q5TCQ9) | pKd (PARD3B_3, Q8TEW8) | pKd (PDZD11, Q5EBL8) | pKd (MAGI2_1, Q86UL8) | pKd (SHROOM3, Q8TF72) | pKd (MLLT4, P55196) | pKd (MPDZ_7, O75970) | pKd (TJP1_1, Q07157) | pKd (PDLIM3, Q53GG5) | pKd (MPP1, Q00013) | pKd (Q9UMS6) | pKd (GIPC3, Q8TF64) | pKd (Q8TEW0) | pKd (GIPC1, O14908) | pKd (NHERF1_1, O14745) | pKd (RGS3, P49796-9) | pKd (GRIP1_1, Q9Y3R0) | pKd (RIMS2, Q9UQ26) | pKd (Q9ULJ8) | pKd (MPDZ_2, O75970) | further results
RPLPRKVSQL [DOCK4, Q8N1I0] | 4.12 | below the threshold | below the threshold | below the threshold | below the threshold | below the threshold | below the threshold | below the threshold | below the threshold | 4.29 | below the threshold | 4.39 | below the threshold | below the threshold | below the threshold | below the threshold | 4.15 | below the threshold | below the threshold | below the threshold | pKd (IL16_2, Q14005): below the threshold; pKd (CNKSR1, Q969H4): below the threshold; pKd (Q9UDY2): below the threshold; pKd (PARD3_1, Q8TEW0): below the threshold; pKd (TJP3_2, O95049): below the threshold
RLPKIKETTV [FRMPD4, Q14CM0] | below the threshold | below the threshold | below the threshold | below the threshold | below the threshold | below the threshold | below the threshold | below the threshold | 4.24 | 5.3 | below the threshold | below the threshold | below the threshold | 4.44 | below the threshold | below the threshold | below the threshold | below the threshold | below the threshold | below the threshold | pKd (IL16_2, Q14005): below the threshold; pKd (CNKSR1, Q969H4): below the threshold; pKd (Q9UDY2): below the threshold; pKd (PARD3_1, Q8TEW0): below the threshold; pKd (TJP3_2, O95049): below the threshold
RHTTSTETAV [HPV30-E6, P36809] | below the threshold | below the threshold | below the threshold | below the threshold | below the threshold | below the threshold | below the threshold | below the threshold | below the threshold | 5.17 | below the threshold | below the threshold | below the threshold | 4.7 | below the threshold | below the threshold | 4.59 | below the threshold | below the threshold | below the threshold | pKd (IL16_2, Q14005): below the threshold; pKd (CNKSR1, Q969H4): below the threshold; pKd (Q9UDY2): below the threshold; pKd (PARD3_1, Q8TEW0): below the threshold; pKd (TJP3_2, O95049): below the threshold
QRQARSETLV [HPV59-E6, Q81964] | below the threshold | below the threshold | below the threshold | below the threshold | below the threshold | 4.33 | 4.28 | below the threshold | below the threshold | 6.03 | below the threshold | below the threshold | below the threshold | below the threshold | below the threshold | below the threshold | below the threshold | below the threshold | below the threshold | below the threshold | pKd (IL16_2, Q14005): below the threshold; pKd (CNKSR1, Q969H4): below the threshold; pKd (Q9UDY2): below the threshold; pKd (PARD3_1, Q8TEW0): below the threshold; pKd (TJP3_2, O95049): below the threshold
